{"source": "paper PMC8269243", "target": "TYLCV coat protein (CP) in viruliferous whiteflies (tomato yellow leaf curl virus (TYLCV) isolate SH2)", "data": [{"substance": "Vitellogenin (Vg) of MEAM1 whitefly (Bta07851), endogenous (natural protein)", "values": [{"measurement": "proportion of phase V midguts (TYLCV movement across the midgut, IFA) in Vg antibody-treated whiteflies after a 24-h AAP; control group 55%", "value": 30, "unit": "%"}, {"measurement": "reduction of the disease incidence rate of tomato plants in the Vg antibody treatment against the control, 15 days (27%) and 30 days (35%) posttransmission", "value": 35, "unit": "%"}]}]}
